Assay results from PMC11870023, “A facile assay for zDHHC palmitoyl transferase activation elucidates effects of mutation and modification” (Journal of Lipid Research, 2025).
Numbering of substitutions follows the chain as printed. Names and notes keep the numbering of the source.

How the values were obtained:
[1] = substrate: CC(C)(COP(=O)(O)OP(=O)(O)OC[C@H]1O[C@@H](n2cnc3c(N)ncnc32)[C@H](O)[C@@H]1OP(=O)(O)O)[C@@H](O)C(=O)NCCC(=O)NCCSC(=O)CCCCCCCCCCCCCCCNc1ccc([N+](=O)[O-])c2nonc12; assay: auto-S-palmitoylation of HEK293 membranes, SDS-PAGE fluorescence normalised to tag Western blot; format: cell-based, Homo sapiens; details: pH 7.4, 37 °C, 2 min, labelled compound, covalent thioester at active-site Cys
Description: auto-S-palmitoylation of HEK293 membranes, SDS-PAGE fluorescence normalised to tag Western blot on human zDHHC14 | A373Y mutation within the N-terminal cytoplasmic tail of zDHHC14 (Fig. 4A) had no effect

[2] = substrate: CC(C)(COP(=O)(O)OP(=O)(O)OC[C@H]1O[C@@H](n2cnc3c(N)ncnc32)[C@H](O)[C@@H]1OP(=O)(O)O)[C@@H](O)C(=O)NCCC(=O)NCCSC(=O)CCCCCCCCCCCCCCCNc1ccc([N+](=O)[O-])c2nonc12; assay: as above; format: cell-based, Homo sapiens; details: pH 7.4, 37 °C, 2 min, labelled compound, covalent thioester at active-site Cys; remark: listed apart in the source
Description: auto-S-palmitoylation of HEK293 membranes, SDS-PAGE fluorescence normalised to tag Western blot on human zDHHC14 | L215S mutation within the third transmembrane segment of zDHHC14 (Fig. 4A) substantially diminished auto-S-palmitoylation

B1: human zDHHC14 (Homo sapiens; A373Y) (protein)
chain: MPPGGGGPMKDCEYSQISTHSSSPMESPHKKKKIAARRKWEVFPGRNKFFCNGRIMMARQTGVFYLTLVLILVTSGLFFAFDCPYLAVKITPAIPAVAGILFFFVMGTLLRTSFSDPGVLPRATPDEAADLERQIDIANGTSSGGYRPPPRTKEVIINGQTVKLKYCFTCKIFRPPRASHCSLCDNCVERFDHHCPWVGNCVGKRNYRFFYMFILSLSFLTVFIFAFVITHVILRSQQTGFLNALKDSPASVLEAVVCFFSVWSIVGLSGFHTYLISSNQTTNEDIKGSWSNKRGKENYNPYSYGNIFTNCCVALCGPISPSLIDRRGYIQPDTPQPAAPSNGITMYGATQSQSDMCDQDQCIQSTKFVLQAYATPLLQSEPSLTSDELHLPGKPGLGTPCASLTLGPPTPPASMPNLAEATLADVMPRKDEHMGHQFLTPDEAPSPPRLLAAGSPLAHSRTMHVLGLASQDSLHEDSVRGLVKLSSV
notes: full length, His6-Myc tag kept (pCEpuro-His6-Myc-1), HEK293 membrane fraction
- Km [1]: 1.72 ± 0.50 µM

B2: human zDHHC14 (Homo sapiens; L215S) (protein)
chain: B1 chain with L215S, Y373A
notes: as for B1
- Km [2]: 4.46 ± 2.66 µM
